Reference: the supplement of paper PMC12042874
± gives the uncertainty stated by the source.

Test: amyloid nucleation score (Sup35N fusion, yeast selection) (log enrichment); library NNK2; higher = more nucleation; inactive = no reads after selection
Summary of the method: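 Plasmid inserts were Illumina-sequenced at input and output from psi-negative yeast expressing Sup35N fused to peptides of 20 random codons. The yeast were induced with 100 μM copper sulfate for 24 hours and grown 7 days at 30°C on medium lacking adenine and uracil, and sequences with under 100 input reads were excluded. Nucleation score is the DiMSum log enrichment of output over input reads, centred on the mode score of non-aggregating sequences.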
DMMRFYGAPDGQGNTHQNRT gave an amyloid nucleation score of 1.63 ± 0.12.
Work on DMRLWCVWSSIACDTSYSTS yielded an amyloid nucleation score of 0.26 ± 0.2.
With DMSSHGGWFRPRRFLEISPL the amyloid nucleation score was 0.183 ± 1.
With DMWMRVILSDNGNQEVPK the amyloid nucleation score was -0.293 ± 0.27.
Work on DNIKTVSRMTWPWLMFTVGG yielded an amyloid nucleation score of 0.3 ± 0.55.
DNSVHCSFSYFNLPELKGCY gave an amyloid nucleation score of 3.8 ± 0.065.
With DNTLLALVGM the amyloid nucleation score was 1.57 ± 0.58.
Work on DNVLYHPDGFGMISALTGVV yielded an amyloid nucleation score of -0.753 ± 0.45.
DNYLYYYFYSFRLTEALFIC showed an amyloid nucleation score of -0.297 ± 1.1.
With DNYSRCGICWVSLRVLYVRR the amyloid nucleation score was “inactive”.
With DPITFEVSCNANVIDPNSLV the amyloid nucleation score was -1.22 ± 0.38.
DPVTMLYSF gave an amyloid nucleation score of 0.179 ± 0.32.
Work on DQALGGEMWWL yielded an amyloid nucleation score of -0.14 ± 0.45.
With DQCELVSGVWLSIRSADLPY the amyloid nucleation score was 0.176 ± 0.35.
Work on DQFWSENRIDYDNLAIRLQL yielded an amyloid nucleation score of -1.1 ± 0.76.
Work on DQLVQGYGNTGWQLGYRMAG yielded an amyloid nucleation score of 5.35 ± 0.056.
For DQTWNWNVGIGFYRSYFLMY, the amyloid nucleation score was “inactive”.
With DRARMYYYSEIHSVVTSIIK the amyloid nucleation score was “inactive”.
DRFRDVIICFFKCTCNRITQ showed an amyloid nucleation score of 4.949 ± 0.034.
In the case of DRFRYICSYVENSDYLLRCL, the amyloid nucleation score is reported as “inactive”.
Substance DRFVLIVHINRGRV has an amyloid nucleation score of 3.86 ± 0.048.
With DRGYKSYGG the amyloid nucleation score was 0.775 ± 0.74.
DRLLRSRLGIRSNRIVCW showed an amyloid nucleation score of -0.539 ± 0.36.
DRRLCLCLLIMSC gave an amyloid nucleation score of -0.578 ± 0.79.
For DRWEPKLI, the amyloid nucleation score was -0.516 ± 0.23.
Work on DRYHDTMAMKARVWSDRCKS yielded an amyloid nucleation score of 1.94 ± 0.34.
DSCCMSYSRQNCTY gave an amyloid nucleation score of 0.218 ± 0.8.
DSDLLVTHMVMLYKHVE showed an amyloid nucleation score of 3.79 ± 0.065.
In the case of DSFVIAVLQIIPYTLTQHSK, the amyloid nucleation score is reported as 1.7 ± 0.085.
Substance DSGEPWILMFLDGYLSAMRL has an amyloid nucleation score of -0.513 ± 0.61.
In the case of DSGFFWCV, the amyloid nucleation score is reported as “inactive”.
Substance DSLINFRLKVPTMLCMFCWI has an amyloid nucleation score of 0.401 ± 0.62.
DSRIGYTSYQRFTMKSNVLC showed an amyloid nucleation score of 0.024 ± 0.44.
DSSGFCMMVYYIQ showed an amyloid nucleation score of -0.365 ± 0.76.
With DSSIDRWF the amyloid nucleation score was 1.15 ± 0.22.
DSSRAVLGVIRYSSEGSL gave an amyloid nucleation score of -0.34 ± 0.41.
For DSVCYNFNFNTF, the amyloid nucleation score was 5.711 ± 0.027.
DSVIWVCIVWRRSSSTMCVM showed an amyloid nucleation score of 1.01 ± 0.38.
DSWSIMWSLC showed an amyloid nucleation score of -0.272 ± 1.1.
With DTKTIRFLYKRYRLSWQVSE the amyloid nucleation score was 4.587 ± 0.04.
With DTLFNCFSCIVKLMSYIKSL the amyloid nucleation score was “inactive”.
With DTMDSAAFTLHCIVWGYPVG the amyloid nucleation score was “inactive”.
DTRLIGECQLGSGVTVLSLG gave an amyloid nucleation score of 0.252 ± 0.27.
Work on DTSAIFSYALLL yielded an amyloid nucleation score of 4.56 ± 0.058.
DVETL gave an amyloid nucleation score of -1.24 ± 0.41.
In the case of DVFGRGLMKEMGFVNFTLYY, the amyloid nucleation score is reported as “inactive”.
For DVHFCNNLLLKRRRGSVVA, the amyloid nucleation score was -0.153 ± 0.41.
Substance DVKKYLRGYCIRPCLLSYLI has an amyloid nucleation score of -0.807 ± 0.79.
Work on DVLGLSGACFGITERVDRLA yielded an amyloid nucleation score of 2.32 ± 0.1.
With DVPLCLYCMYLSSFRVVIWM the amyloid nucleation score was 2.35 ± 0.1.
Work on DVQGWFVITSGFADGSQARR yielded an amyloid nucleation score of 1.19 ± 0.17.
For DVRHQWFEMVRVVIICKPVN, the amyloid nucleation score was -0.149 ± 0.42.
DVRSRVHWDMSDQQFIMWWV showed an amyloid nucleation score of -0.716 ± 1.1.
Work on DWCWAMDLYSFVFHCRLEAF yielded an amyloid nucleation score of -0.658 ± 1.
Work on DYDNW yielded an amyloid nucleation score of -0.618 ± 1.1.
For DYKDYNLCGITHMESF, the amyloid nucleation score was -0.442 ± 1.
Work on DYLCGNFKCYCVFTNDGNRF yielded an amyloid nucleation score of 2.42 ± 0.21.
Substance DYLRYRYSMFCTCPAVTQS has an amyloid nucleation score of -0.567 ± 0.78.
For DYRMCI, the amyloid nucleation score was 0.926 ± 0.48.
Work on DYSGYHFMEQVP yielded an amyloid nucleation score of -0.363 ± 0.33.
Substance DYSSVVYNDGIWKGAPNFK has an amyloid nucleation score of -2.05 ± 0.78.
DYTSVSMVIHVCKRL gave an amyloid nucleation score of 5.59 ± 0.097.
With DYVSRKCFRDKWSERSSCRG the amyloid nucleation score was 0.085 ± 0.37.
In the case of DYYRPIIGH, the amyloid nucleation score is reported as -0.407 ± 0.28.
In the case of EAFYLSFFN, the amyloid nucleation score is reported as “inactive”.
EARVSRLFT showed an amyloid nucleation score of 0.542 ± 0.18.
ECDYRTLSLNMVLNYCRKGG gave an amyloid nucleation score of 5.955 ± 0.046.
With ECNSSALHNWKY the amyloid nucleation score was 0.088 ± 0.54.
Work on ECSHQIL yielded an amyloid nucleation score of -0.179 ± 0.63.
In the case of EDAFMSFCMVRLWDHF, the amyloid nucleation score is reported as -0.089 ± 1.1.
With EDIGSGGKTRFLDRRWVFCN the amyloid nucleation score was “inactive”.
For EDKLFINLSRELVFGKIRPT, the amyloid nucleation score was 6.138 ± 0.053.
With EESSTKGMTG the amyloid nucleation score was -0.014 ± 0.26.
Work on EFMNDVIILIYLSFKRTILN yielded an amyloid nucleation score of -0.541 ± 1.1.
Work on EFMYKQCRYIVTPYGLVVSR yielded an amyloid nucleation score of -0.557 ± 1.1.
With EFRNLT the amyloid nucleation score was -0.213 ± 0.18.
With EFTAFYGQEFKW the amyloid nucleation score was 0.182 ± 1.1.
Work on EGICFLLMDCSCNNCFLALA yielded an amyloid nucleation score of 4.66 ± 0.055.
For EGLRVEMCYGKNVSFMIGSY, the amyloid nucleation score was 5.727 ± 0.049.
For EGMSI, the amyloid nucleation score was “inactive”.
EHLWYLIREIPNHEFKNKLE gave an amyloid nucleation score of 0.073 ± 0.42.
EIMSFSVRSKYAFWIPIAIC showed an amyloid nucleation score of -0.026 ± 0.53.
Work on EIQHRNTAYYRSVSVGPTAV yielded an amyloid nucleation score of 0.987 ± 0.67.
For EIYCCAYPLFCVWVVTGIRL, the amyloid nucleation score was 1.62 ± 0.13.
For ELSHSLSIKATVEGS, the amyloid nucleation score was 0.279 ± 0.56.
Work on ELVRDASECRYIIVCLNSVA yielded an amyloid nucleation score of -0.047 ± 0.65.
